In patent US20170198014A1, “POLYPEPTIDES AND THEIR USE FOR TREATING INFLUENZA” ([…] ITS CENTER FOR COMMERCIALIZATION, priority 2014, published 2017):
Residue numbers refer to the chain shown, from its start.

B1: GIVNVPNPNTTKYQQLARTAVAIYNYHEQAHLCFVENLNVKEQGNYYYITLAACDDAGKKAIYEAKIGVVESAGWTGVEEFKLV (protein)
chain: GIVNVPNPNTTKYQQLARTAVAIYNYHEQAHLCFVENLNVKEQGNYYYITLAACDDAGKKAIYEAKIGVVESAGWTGVEEFKLV
B2: GIVNVPNCNTTKYQQLARTAVAIYNYHEQAHLTFVENLNCKEQGNYYYITLAATDDAGKKAIYEAKIGVVESAGWTGVEEFKLV (protein)
chain: B1 chain with P8C, C33T, V40C, C54T
B3: ASGMLAISMDTDKISNSFEDCKYFLIELKSAGWTNTIFNDESGKEEIVKMGVDAIICKNISEENYKKFSKKIEIYHAEGDDVNKNISLFLEGELSKISNP (protein)
chain: ASGMLAISMDTDKISNSFEDCKYFLIELKSAGWTNTIFNDESGKEEIVKMGVDAIICKNISEENYKKFSKKIEIYHAEGDDVNKNISLFLEGELSKISNP

How the values were obtained:
[1] = target: HA of H3N2 A/Hong Kong/1/1968 (Influenza A virus, UniProt Q91MA7)
[2] = stability after loop truncation and trimerization; conditions: trimerized, truncation of 3 residues after position 43
[3] = target: H1 (A/NewCaledonia/20/1999) (Influenza A virus, UniProt Q6WG00); conditions: read-out: affinity constant via yeast surface display

Row | Molecule | binding when trimerized [1] | stability [2] | Kd [3]
1 | B1 | binds extremely tightly | stability is improved | 
2 | B2 | binds extremely tightly | stability is improved | 
3 | B3 |  |  | 23.2 nM
